The values that follow are results of earlier work, collected in patent US20210333272A1.

Usually Kd stands for the equilibrium constant for the complex coming apart.

The subject of this data set is CD63 fragment. As to conditions: CITED BasePair Biotechnologies CD63 aptamer data sheet; cited from earlier work.

On to BasePair CD63 aptamer (ATW0056), for which the Kd is 17.1 nM.
